Measurements: patent publication US10829540 (AstraZeneca / MedImmune, dated 2020)
Blank lines part the entries; values can stand above or below the binder they belong to.

Assays:
[1] = biological target: T1, human P2X4 (human, UniProt Q99571 1-388); assay: cell-based or functional assay
T1 sequence (looked up): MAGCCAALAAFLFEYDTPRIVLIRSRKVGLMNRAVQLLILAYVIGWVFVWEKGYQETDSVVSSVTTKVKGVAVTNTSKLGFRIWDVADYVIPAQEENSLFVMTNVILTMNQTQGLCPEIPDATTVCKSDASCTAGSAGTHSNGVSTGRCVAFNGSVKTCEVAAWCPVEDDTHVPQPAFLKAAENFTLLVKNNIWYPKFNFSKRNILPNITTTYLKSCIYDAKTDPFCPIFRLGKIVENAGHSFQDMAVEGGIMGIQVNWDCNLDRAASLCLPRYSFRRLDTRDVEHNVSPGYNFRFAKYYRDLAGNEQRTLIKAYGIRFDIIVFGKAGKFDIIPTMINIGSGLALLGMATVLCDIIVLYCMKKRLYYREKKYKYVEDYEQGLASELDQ

[2] = biological target: T1, human P2X4; assay: cell-based or functional assay; remark: listed apart in the source

IC50, inhibition of human P2X4 currents in electrophysiology [1]: 3.8 nM
IC50 (nM), inhibition of human P2X4 currents in electrophysiology [2]: 3.9 nM
B1: Antibody 4 (antibody, V domains shown)
VH: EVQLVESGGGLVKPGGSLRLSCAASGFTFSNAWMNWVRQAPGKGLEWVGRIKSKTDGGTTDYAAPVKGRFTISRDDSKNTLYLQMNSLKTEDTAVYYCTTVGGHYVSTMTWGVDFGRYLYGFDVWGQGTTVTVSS
VL: QSVLTQPPSVSLSPGQTARITCSGDVLSKQFGYWYQQKPGQAPVVVIYNDSERPSGIPERFSGSSSGTTVTLTITGVQAEDEADYYCQSADSSGTVLFGGGTKLTVL

IC50 (nM), inhibition of human P2X4 currents in electrophysiology [2]: 19.6 nM
B2: Antibody 1 (antibody, V domains shown)
VH: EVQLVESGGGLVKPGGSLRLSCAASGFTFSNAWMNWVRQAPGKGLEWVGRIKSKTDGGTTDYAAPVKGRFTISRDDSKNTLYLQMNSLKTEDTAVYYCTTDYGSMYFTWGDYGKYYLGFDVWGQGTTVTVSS
VL: SYVLTQPPSVSVSPGQTATITCSGDTLPQRYAYWYQQKPGQAPILLIYKDSERPSGIPDRFSGSSSGTTVALTISGVQAEDEADYYCQSTDTSGVVFGGGTKVTVL

IC50 (nM), inhibition of human P2X4 currents in electrophysiology [2]: 50 nM
B3: Antibody 3 (antibody, V domains shown)
VH: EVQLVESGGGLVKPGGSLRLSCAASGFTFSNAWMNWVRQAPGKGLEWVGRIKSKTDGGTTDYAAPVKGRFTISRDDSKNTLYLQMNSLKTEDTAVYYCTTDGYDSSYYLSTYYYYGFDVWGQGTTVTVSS
VL: SSELTQDPAASVALGQTVTITCQGDSLRSYYASWYQQKPGQAPVLVFYGKNIRPSGIPDRFSGSDSRDTASLTITGAQADDEADYYCNSRDTSGNVVFGGGTKVTVL
